{"source": "patent US20190119357A1", "about": "(MODERNATX, published 2019)", "biological_target": "T1, MDM2 (UniProt Q00987 1-491, limits assumed)", "T1 construct": "Endogenous MDM2 of HCT116 cells", "T1 sequence (Q00987 whole entry)": "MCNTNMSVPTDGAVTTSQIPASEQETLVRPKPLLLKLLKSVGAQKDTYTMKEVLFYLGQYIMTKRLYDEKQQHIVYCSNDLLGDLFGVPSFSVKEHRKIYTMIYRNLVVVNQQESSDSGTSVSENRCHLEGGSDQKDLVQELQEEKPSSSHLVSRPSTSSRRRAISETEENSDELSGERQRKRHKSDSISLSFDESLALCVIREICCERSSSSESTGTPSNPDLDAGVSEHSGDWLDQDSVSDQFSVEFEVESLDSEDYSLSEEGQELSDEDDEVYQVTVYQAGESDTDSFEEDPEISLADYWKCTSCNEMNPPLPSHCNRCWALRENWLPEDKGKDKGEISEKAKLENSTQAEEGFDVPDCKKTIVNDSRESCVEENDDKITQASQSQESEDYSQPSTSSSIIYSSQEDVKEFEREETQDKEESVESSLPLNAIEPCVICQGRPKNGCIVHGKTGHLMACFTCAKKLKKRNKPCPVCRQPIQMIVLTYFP", "assay": "anti-V5 immunoprecipitation from transfected HCT116 cell lysates, blot probed with anti-MDM2", "data": [{"binder": "SQT(MDM2)(nt).P7041.cV5 (designed binder, also called P7041 peptide in N-terminus of SQT; SQT-MDM2 construct 2) MIPRLTFEEYWAQLLSAAGLSEAKPATPEIQEIVDKVKPQLEEKTNETYGKLEAVQYKTQVLASTNYYIKVRAGDNKYMHLKVFNGPPGQNADRVLTGYQVDKNKDDELTGFGKPIPNPLLGLDST", "values": [{"measurement": "binding result", "value": "binds"}]}, {"binder": "SQT(MDM2)(nt).P6W.cV5 (designed binder, also called P6W peptide in N-terminus of SQT; SQT-MDM2 construct 7) MIPRLTFEHWWAQLTSGLSEAKPATPEIQEIVDKVKPQLEEKTNETYGKLEAVQYKTQVLASTNYYIKVRAGDNKYMHLKVFNGPPGQNADRVLTGYQVDKNKDDELTGFGKPIPNPLLGLDST", "values": [{"measurement": "binding result", "value": "binds"}]}, {"binder": "SQT(MDM2)(nt).pDIQ.cV5 (designed binder, also called pDIQ peptide in N-terminus of SQT; SQT-MDM2 construct 3) MIPRETFEHWWSQLLSGLSEAKPATPEIQEIVDKVKPQLEEKTNETYGKLEAVQYKTQVLASTNYYIKVRAGDNKYMHLKVFNGPPGQNADRVLTGYQVDKNKDDELTGFGKPIPNPLLGLDST", "values": [{"measurement": "binding result", "value": "binds"}]}, {"binder": "SQT(MDM2)(nt).pMI.cV5 (designed binder, also called pMI peptide in N-terminus of SQT; SQT-MDM2 construct 4) MIPRTSFAEYWNLLSPGLSEAKPATPEIQEIVDKVKPQLEEKTNETYGKLEAVQYKTQVLASTNYYIKVRAGDNKYMHLKVFNGPPGQNADRVLTGYQVDKNKDDELTGFGKPIPNPLLGLDST", "values": [{"measurement": "binding result", "value": "binds"}]}, {"binder": "SQT(MDM2)(L2).P3848.cV5 (designed binder, also called P3848 peptide in Loop 2 of SQT; SQT-MDM2 construct 5) MIPRGLSEAKPATPEIQEIVDKVKPQLEEKTNETYGKLEAVQYKTQVLASTNYYIKVRAGDNKYMHLKVFNGPLTFEHYWAQLTSPGQNADRVLTGYQVDKNKDDELTGFGKPIPNPLLGLDST", "values": [{"measurement": "binding result", "value": "binds"}]}, {"binder": "SQT(MDM2)(L2).P1E6W.cV5 (designed binder, also called P1E6W peptide in Loop 2 of SQT; SQT-MDM2 construct 6) MIPRGLSEAKPATPEIQEIVDKVKPQLEEKTNETYGKLEAVQYKTQVLASTNYYIKVRAGDNKYMHLKVFNGPETFEHWWAQLTSPGQNADRVLTGYQVDKNKDDELTGFGKPIPNPLLGLDST", "values": [{"measurement": "binding result", "value": "binds"}]}]}
